Measurements from PMC8500521.

How the values were obtained:
[1] = target: 6HB (HR1-linker-HR2) of SARS-CoV-2 fusion protein (SARS-CoV-2) (UniProt P0DTC2); assay: SEC-MALS; Superose-12, room temperature, 20 mM sodium phosphate pH 6.0, 30 mM NaCl; injected 65 uM 6HB, 90 uM HR1
[2] = target: 6HB (HR1-linker-HR2) of SARS-CoV-2 fusion protein (SARS-CoV-2) (UniProt P0DTC2); assay: AUC; sedimentation velocity, 50,000 rpm, 20 C, 50 mM NaCl, 25 mM sodium phosphate pH 6.0, no detergent; monomer to tetramer
[3] = target: HR1 (heptad repeat 1) domain of SARS-CoV-2 spike protein (SARS-CoV-2) (UniProt P0DTC2); assay: as above

Substance	stoichiometry N [1]	stoichiometry N [2]	stoichiometry N [3]
6HB (HR1-linker-HR2) of SARS-CoV-2 fusion protein (from UniProt P0DTC2 918-965; P0DTC2 1171-1207)	3	3	–
HR1 (heptad repeat 1) domain of SARS-CoV-2 spike protein (from UniProt P0DTC2 918-965) (domain or fragment)	–	–	4
